Assay results taken from patent US9777044B2, “GLUT-1 as a receptor for HTLV envelopes and its uses” (CENTRE NATIONAL DE LA RECHERCHE SCIENTIFIQUE (CNRS), priority 2003, dated 2017).
Residue numbers refer to the chain shown, from its start. Names may count otherwise.

Columns and labels:
[1] = tested on: 293T cells; assay: Hexose uptake assay: 2-deoxyglucose; format: cell-based, human; conditions: for glucose uptake in presence of glucose transporter inhibitors: control 293T cells, 20 μM cytochalasin B, 300 μM phloretin
Description: (§1) Assay of hexose uptake. 2-deoxy-D[1-^3H]glucose, D[U-^14C]fructose and 3-O-[^14C]methyl-D-glucose were obtained from Amersham. Hexose uptake assay were adapted from Harrison et al. 1991). After transfection, approximately 250,000 were seeded/well in 24-well plates. […] Uptake was initiated by adding labeled hexoses to a final concentration of 0.1 mM (2 μCi/ml for 2-2-deoxy-D[1-^3H]glucose and 0.2 μCi/ml for D[U-^14C]fructose and 3-O-[^14C]methyl-D-glucose) and cells were incubated for 5′ additional minutes. Cells were then resuspended in 500 μl cold serum-free glucose-free DMEM, wash one time in serum-free glucose-free DMEM, and solubilized in 400 μl of 0.1% SDS. 3 μl was used for Bradford normalization, while the rest was used for detection of either ^3H or ^14C by liquid scintillation in a Beckman counter.

[2] = target: T1, GLUT-1 (Homo sapiens, UniProt P11166); assay: Colocalization with GLUT-1 by fluorescence microscopy; format: cell-based
T1 construct: factor Xa cleavage site (C); His (C); expressed in transfected cells
T1 sequence (P11166 1-492): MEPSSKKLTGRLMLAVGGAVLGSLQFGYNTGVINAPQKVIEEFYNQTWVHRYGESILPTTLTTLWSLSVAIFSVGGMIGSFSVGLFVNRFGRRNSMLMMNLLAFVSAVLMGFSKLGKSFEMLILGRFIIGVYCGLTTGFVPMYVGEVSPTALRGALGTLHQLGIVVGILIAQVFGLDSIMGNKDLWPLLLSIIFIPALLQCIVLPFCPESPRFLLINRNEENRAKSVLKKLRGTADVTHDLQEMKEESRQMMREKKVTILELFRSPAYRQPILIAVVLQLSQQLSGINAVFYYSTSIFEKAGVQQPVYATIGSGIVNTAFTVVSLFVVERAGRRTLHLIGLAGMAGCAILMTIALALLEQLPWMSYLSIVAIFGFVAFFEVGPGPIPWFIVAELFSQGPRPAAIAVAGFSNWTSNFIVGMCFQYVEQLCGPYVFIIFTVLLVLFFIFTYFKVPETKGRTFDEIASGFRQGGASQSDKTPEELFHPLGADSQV
From the text: (§2) In order to directly test the ability of HTLV envelopes to bind GLUT-1, we derived a tagged GLUT-1 expression vector and overexpressed this protein in HeLa cells. […] GLUT-3 is the closest isoform to GLUT-1, and transports glucose with kinetics similar to that of GLUT-1. Thus, we derived a tagged GLUT-3 expression vector. […] To determine if GLUT-1 transfected cells were directly responsible for the observed increased in H1RBD binding, we derived fluorescent tagged GLUT-1 and GLUT-3 to uniquevocally identity GLUT-overexpressing cells in the course of our FACS analysis. […] Consequently, we tested if HTLV glycoproteins directly interact with GLUT-1 proteins. To this end, we evaluated the ability of H1RBD to immunoprecipitate GLUT-1. […] Therefore, the GLUT-1 glucose transporter is an essential component of the HTLV envelope receptor.

[3] = tested on: PiT2; assay: Colocalization with PiT2 by fluorescence microscopy; format: cell-based
[4] = tested on: 293T cells; assay: Medium acidification after transfection of envelope expression vectors; format: cell-based, human; conditions: 293T cells transfected with envelope expression vector; phenol-red pH indicator
[5] = target: T2, HTLV receptor (Homo sapiens, UniProt P11166); assay: FACS binding assay of RBD and mutants on HeLa cells
T2 construct: endogenous in cells; host or cells: HeLa cells
T2 sequence (P11166 1-492): T1 sequence (P11166 1-492)
Description: Binding assays. Binding assays were carried out as previously described [Manel, 2003]. Briefly, 5×10^5 cells (293T, HeLa, Jurkat or freshly isolated human erythrocytes) were incubated with 500 μl of H1RBD, H2RBD or ARBD supernatants for 30 min at 37° C., washed with PBA (1% BSA, 0.1% sodium azide in PBS), and incubated with a sheep anti-rabbit IgG antibody conjugated to fluorescein isothiocyanate (Sigma). […] Binding was analyzed on a FACSCalibur (Becton Dickinson) and data analysis was performed using CellQuest (Becton Dickinson) and WinMDI (Scripps) softwares.

[6] = tested on: 293T cells; assay: Extracellular lactate in culture medium of transfected cells; format: cell-based, human; conditions: medium of 293T cells one day post transfection
Description: Envelope expression and metabolic measurements. 293T cells were transfected with the various envelope expression vectors using a modified version of the calcium phosphate method. After an overnight transfection, cells were washed in phosphate-buffered saline (PBS) and fresh medium was added. Media were harvested at the indicated time points, filtered through a 0.45-μm pore-size filter, and lactate and glucose were measured with enzymatic diagnostic kits (Sigma). Values were normalized to cellular protein content using the Bradford assay (Sigma) after solubilization of cells in lysis buffer (50 mM Tris-HCl pH 8.0, 150 mM NaCl, 0.1% sodium dodecyl sulfate, 1.0% Nonidet P-40, 0.5% deoxycholate) and clarification by centrifugation.

[7] = target: T1, GLUT-1; assay: RBD binding to cells overexpressing GLUT-1; conditions: tagged GLUT-1 expression vector, HeLa cells / 293T cells (FIG. 4a legend)
From the text: as §2
Expression vectors. Full length envelope expression vectors for HTLV-1 (pCEL/2[Denesvre, 1995]) and Friend ecotropic MLV (pCEL/F [Denesvre, 1995]), have been previously described. For the HTLV-2 envelope, a fragment from pHTE2 [Rosenberg, 1998] encompassing the tax, rex and env genes and the 3′ LTR was inserted in the pCSI [Battini, 1999] vector (pCSIX.H2). Full length envelope expression vectors for amphotropic MLV (pCSI.A), or devoid of its R peptide (pCSI.AΔR), and H183FEnv that contains the N-terminal 183 amino acids of the HTLV-1 receptor-binding domain in the F-MLV envelope background, as well as truncated envelope expression vectors, derived from pCSI and encoding either of the first 215 residues of HTLV-1 SU (H1RBD), the first 178 residues of HTLV2-SU (H2RBD) or the first 397 residues of the amphotropic murine leukemia virus (MLV) SU (Amp), fused to a C-terminal rabbit IgG Fc tag (rFc) or to EGFP (H2RBD-GFP). All point mutations introduced in HTLV-1 and -2 RBD constructs were generated using the quickchange site-directed mutagenesis method and mutations were verified by sequencing. Human Glut-1 and Glut-3 cDNA were amplified by PCR from the pLib HeLa cDNA library (Clontech), and inserted into pCHIX, a modified version of the pCSI vector that contains a cassette comprising a factor Xa cleavage site, two copies of the hemagglutinin (HA) tag, and a histidine tag. The resulting construct (pCHIX.hGLUT1) encodes a GLUT-1 protein with a HA-His tag at the C-terminal end. GLUT-1 and GLUT-3 were also inserted in a modified pCSI vector containing a DsRed2 C-terminal tag. Similarly, human CD147 was amplified from 293T total RNA by RT-PCR and inserted into the pCHIX backbone in frame with the HA-His tag (pCHIX.hCD147).
Binding assays. […] Binding was analyzed on a FACSCalibur (Becton Dickinson) and data analysis was performed using CellQuest (Becton Dickinson) and WinMDI (Scripps) softwares.

[8] = target: T1, GLUT-1; assay: Immunoprecipitation of GLUT-1-HA with anti-rabbit-Fc beads; format: binding; conditions: co-expression with GLUT-1 in 293T cells, probed with anti-HA antibody
From the text: FIGS. 4a-4c GLUT-1 is a receptor for HTLV envelopes. FIG. 4a, Binding of H1RBD, H2RBD, H2RBD D102A mutant, and ARBD to control 293T cells or 293T cells overexpressing either GLUT-1 or PiT2. FIG. 4b, Binding of H2RBD-EGFP to cells overexpressing GLUT-1-HA or GLUT-3-HA, and corresponding immunoblots using an anti-HA antibody. FIG. 4c, Immunoprecipitation of GLUT-1-HA from 293T cells transfected with either an irrelevant construct, GLUT-1 alone, H1RBD alone, H1RBD Y114A alone, GLUT-1 with H1RBD or GLUT-1 with H1RBD Y114A expression vectors Immunoprecipitation was performed using anti-rabbit-Fc beads and probed with an anti-HA antibody. Total cell extracts were blotted using an anti-rabbit Fc or an anti-HA antibody.
In order to directly test the ability of HTLV envelopes to bind GLUT-1, we derived a tagged GLUT-1 expression vector and overexpressed this protein in HeLa cells. […] GLUT-3 is the closest isoform to GLUT-1, and transports glucose with kinetics similar to that of GLUT-1. Thus, we derived a tagged GLUT-3 expression vector. […] To determine if GLUT-1 transfected cells were directly responsible for the observed increased in H1RBD binding, we derived fluorescent tagged GLUT-1 and GLUT-3 to uniquevocally identity GLUT-overexpressing cells in the course of our FACS analysis. […] To this end, we evaluated the ability of H1RBD to immunoprecipitate GLUT-1. […]

[9] = tested on: MLV particles pseudotyped with A-MLV envelopes; assay: Interference to infection by A-MLV envelope pseudotyped MLV particles; format: cell-based; conditions: 293T cells transfected with H2RBD expression vector
From the text: (§3) Viral receptor permits entry and thus infection. No cellular system currently exists that lacks GLUT-1 expression. […] In this system, over-expression of HTLV-2 RBD interferes with infecting incoming HTLV particles and specifically decreases HTLV titers by at least 2 logs, while no effect is detected on control A-MLV titers. To determine if GLUT-1 is an entry receptor for HTLV, we overexpressed GLUT-1, GLUT-3 or Pit2 in addition to the interfering H2RBD. While Pit2 and GLUT-3 had no effect on HTLV titers, GLUT-1 completely alleviated the interference to infection induced by H2RBD (FIG. 5). […] Thus, GLUT-1 is an entry receptor for HTLV.
(§4) Infections. 293T cells were transfected in 6-wells plate, and one day after transfection, medium was replaced by high glucose DMEM supplemented with fructose (5 g/l) and non-essential amino acids. The next day, infection was initiated by adding supernatants containing MLV particles pseudotyped with either HTLV-2 or A-MLV envelopes. The following day, fresh medium was added, and 24 hours later cells were fixed and stained for alkaline phosphatase activity and dark focus of infection were counted. Viral particles were obtained by transfecting 293T cells with pLAPSN, pGagPol and either pCSIX.H2 or pCSI.A, and harvesting the 0.45 μm-filtered supernatants 24 hours later.

[10] = tested on: MLV particles pseudotyped with HTLV-2 envelopes; assay: Interference to infection by HTLV-2 envelope pseudotyped MLV particles; format: cell-based; conditions: 293T cells transfected with H2RBD expression vector
From the text: as §3, §4

[11] = tested on: PiT2; assay: RBD binding to cells overexpressing PiT2
[12] = tested on: 293T cells; assay: Hexose uptake assay: fructose; format: cell-based, human; conditions: transfected 293T cells
Description: as §1

## C=C1[C@@H](C)[C@H]2[C@H](Cc3ccccc3)NC(=O)[C@]23OC(=O)/C=C/[C@H](O)CCC[C@@H](C)C/C=C/[C@H]3[C@@H]1O [cytochalasin B, reference compound]
[1]
  glucose uptake in presence of glucose transporter inhibitors: inhibited glucose uptake

## O=C(CCc1ccc(O)cc1)c1c(O)cc(O)cc1O [phloterin, phloretin, reference compound]
[1]
  glucose uptake in presence of glucose transporter inhibitors: inhibited glucose uptake

## GFP-tagged HTLV-2 RBD
[2]
  colocalization with GLUT-1: colocalized with GLUT-1
[3]
  colocalization with PiT2: not with PiT2

## HTLV-2 Env: full length syncytial wild-type HTLV-2 envelope (pCSIX.H2) (MKWVTFISLLFLFSSAYS)
[4]
  medium acidification: did not readily acidify

B1: D106A (protein)
chain: DYSPSCCTLTIGVSSYHSKPCNPAQPVCSWTLDLLALSADQALQPPCPNLVSYSSYHATYSLYLFPHWIKKPNRNGGGYYSASYSAPCSLKCPYLGCQSWTCPYTGAVSSPYWKFQQDVNFTQEVSRLNINLHFSKCGFPFSLLVDAPGYDPIWFLNTEPSQLPPTAPPLLPHSNLDHILEPSIPWKSKLLTLVQ
[5]
  binding to the HTLV receptor as detected by FACS analysis: significantly reduced
[6]
  lactate accumulation in cells expressing RBD mutant: minimally reduced
[7]
  binding upon GLUT-1 overexpression: did not bind GLUT-1

B2: Y114A (protein)
chain: B1 chain with A86D, Y94A
[8]
  detection of GLUT-1 upon immunoprecipitation with anti-rabbit-Fc-beads: could not be detected
[5]
  binding to the HTLV receptor as detected by FACS analysis: non-detectable
[6]
  lactate accumulation in cells expressing RBD mutant: not reduced

B3: H2RBD: first 178 residues of HTLV2-SU fused to a C-terminal rabbit IgG Fc tag (rFc) (protein)
chain: VDVPRDCGCKPCICTVPEVSSVFIFPPKPKDVLTITLTPKVTCVVVDISKDDPEVQFSWFVDDVEVHTAQTQPREEQFNSTFRSVSELPIMHQDWLNGKEFKCRVNSAAFPAPIEKTISKTKGRPKAPQVYTIPPPKEQMAKDKVSLTCMITDFFPEDITVEWQWNGQPAENYKNTQPIMDTDGSYFVYSKLNVQKSNWEAGNTFTCSVLHEGLHNHHTEKSLSHSPGK
[9]
  effect on control A-MLV titers: no effect
[10]
  decrease of HTLV titers by over-expression of interfering RBD: at least 2 logs
[11]
  binding upon overexpression of PiT2: remained at background levels
[1]; transfected 293T cells vs control cells
  decrease in 2-deoxyglucose uptake: approximately 4 fold
[12]
  Fructose uptake: not altered
[7]
  binding upon GLUT-1 overexpression: dramatically increased
